How the values were obtained:
[1] = tested on: Jurkat cell extract preys; test: PDZ-AP-MS, biotinylated MBP-PDZ baits; type: binding, human; details: for Difference log2: enrichment of prey
Summary of the method: (§1)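 Biotinylated His6-AviTag-MBP-PDZ baits, or MBP alone, saturated streptavidin resin and were then biotin-blocked. Each was incubated with 1 mg cell lysate for 2 h at 4 °C, washed, and eluted in 8 M urea. Eluates were digested with Lys-C/trypsin, run by nanoLC-MS/MS on an Orbitrap Elite (top20 CID) and searched against human SwissProt.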

HeLa cell extract preys = test: PDZ-AP-MS, biotinylated MBP-PDZ baits; type: binding, human; details: PDZ-AP-MS fold change of the PBM-protein prey
Summary of the method: as §1

HaCat cell extract preys = test: PDZ-AP-MS, biotinylated MBP-PDZ baits; type: binding, human
Summary of the method: as §1

HEK293T cells = test: Label-free MS proteome of stable cell lines expressing HPV16 E6 or E6ΔPBM; type: cell-based, human; details: protein level; for Difference log2 E6/Ctrl / Ratio E6/Ctrl: E6 cell line vs control; for Difference log2 dPBM/E6 / Ratio dPBM/E6: dPBM cell line vs E6 cell line; for Difference log2 dPBM/Ctrl / Ratio dPBM/Ctrl: dPBM cell line vs control
Summary of the method: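 Confluent HEK293T lysates in HEPES-KOH pH 7.5, 1% Triton X-100 buffer, TCA-precipitated, reduced, alkylated, Lys-C then trypsin digested. nanoLC (90 min gradient) on LTQ-Orbitrap Elite, TOP20 CID data-dependent acquisition; SequestHT search of human SwissProt, 1% FDR. Label-free quantification by peptide XIC intensity, technical triplicates.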

[2] = PDZ-AP-MS fold change of the PBM-protein prey, bait MBP-PDZ DLG1_1
[3] = PDZ-AP-MS fold change of the PBM-protein prey, bait MBP-PDZ DLG1_2
[4] = PDZ-AP-MS fold change of the PBM-protein prey, bait MBP-PDZ SCRIB_1
[5] = PDZ-AP-MS fold change of the PBM-protein prey, bait MBP-PDZ SCRIB_2
[6] = PDZ-AP-MS fold change of the PBM-protein prey, bait MBP-PDZ SNX27
[7] = PDZ-AP-MS fold change of the PBM-protein prey, bait MBP-PDZ TX1BP3
[8] = bait SCRIB_1 PDZ, fold change of prey

B1: SRSF3 (protein, UniProt P84103 1-164, looked up)
Serine/arginine-rich splicing …: MHRDSCPLDCKVYVGNLGNNGNKTELERAFGYYGPLRSVWVARNPPGFAFVEFEDPRDAADAVRELDGRTLCGCRVRVELSNGEKRSRNRGPPPSWGRRPRDDYRRRSPPPRRRSPRRRSFSRSRSRSLSRDRRRERSLSRERNHKPSRSFSRSRSRSRSNERK
Fold changes, Jurkat, DLG1_1 [1, 2]: 0.942 | Fold changes, Jurkat, DLG1_2 [1, 3]: 1.581 | Fold changes, Jurkat, SCRIB_1 [1, 4]: 0.6991 | Fold changes, Jurkat, SCRIB_2 [1, 5]: 0.9858 | Fold changes, Jurkat, SNX27 [1, 6]: 1.323 | Fold changes, Jurkat, TX1BP3 [1, 7]: 0.7942 | Fold changes, HeLa, DLG1_1 (HeLa cell extract preys; bait MBP-PDZ DLG1_1): 8.89 | Fold changes, HeLa, DLG1_2 (HeLa cell extract preys; bait MBP-PDZ DLG1_2): 0.7503 | Fold changes, HeLa, SCRIB_1 (HeLa cell extract preys; bait MBP-PDZ SCRIB_1): 8.2529 | Fold changes, HeLa, SCRIB_2 (HeLa cell extract preys; bait MBP-PDZ SCRIB_2): 6.813 | Fold changes, HeLa, SNX27 (HeLa cell extract preys; bait MBP-PDZ SNX27): 0.891 | Fold changes, HeLa, TX1BP3 (HeLa cell extract preys; bait MBP-PDZ TX1BP3): 0.5408 | Fold changes, HaCat, DLG1_1 (HaCat cell extract preys; [2]): 0.6471 | Fold changes, HaCat, DLG1_2 (HaCat cell extract preys; [3]): 0.7027 | Fold changes, HaCat, SCRIB_1 (HaCat cell extract preys; [4]): 0.4366 | Fold changes, HaCat, SCRIB_2 (HaCat cell extract preys; [5]): 0.378 | Fold changes, HaCat, SNX27 (HaCat cell extract preys; [6]): 0.5499 | Fold changes, HaCat, TX1BP3 (HaCat cell extract preys; [7]): 0.6457

B2: ARHGEF6 (protein, UniProt Q15052 1-776, looked up)
Rho guanine nucleotide …: MNPEEQIVTWLISLGVLESPKKTICDPEEFLKSSLKNGVVLCKLINRLMPGSVEKFCLDPQTEADCINNINDFLKGCATLQVEIFDPDDLYSGVNFSKVLSTLLAVNKATEDQLSERPCGRSSSLSAANTSQTNPQGAVSSTVSGLQRQSKTVEMTENGSHQLIVKARFNFKQTNEDELSVCKGDIIYVTRVEEGGWWEGTLNGRTGWFPSNYVREIKSSERPLSPKAVKGFETAPLTKNYYTVVLQNILDTEKEYAKELQSLLVTYLRPLQSNNNLSTVEVTSLLGNFEEVCTFQQTLCQALEECSKFPENQHKVGGCLLSLMPHFKSMYLAYCANHPSAVNVLTQHSDELEQFMENQGASSPGILILTTNLSKPFMRLEKYVTLLQELERHMEDTHPDHQDILKAIVAFKTLMGQCQDLRKRKQLELQILSEPIQAWEGEDIKNLGNVIFMSQVMVQYGACEEKEERYLMLFSNVLIMLSASPRMSGFIYQGKIPIAGTVVTRLDEIEGNDCTFEITGNTVERIVVHCNNNQDFQEWLEQLNRLIRGPASCSSLSKTSSSSCSAHSSFSSTGQPRGPLEPPQIIKPWSLSCLRPAPPLRPSAALGYKERMSYILKESSKSPKTMKKFLHKRKTERKPSEEEYVIRKSTAALEEDAQILKVIEAYCTSANFQQGHGSSTRKDSIPQVLLPEEEKLIIEETRSNGQTIMEEKSLVDTVYALKDEVRELKQENKRMKQCLEEELKSRRDLEKLVRRLLKQTDECIRGESSSKTSILP
Difference log2 ([1]; bait SCRIB_1 PDZ vs MBP): 4.28 | Ratio SCRIB_1/MBP [1, 8]: 19.4266 | Difference log2 ([1]; bait TX1BP3 PDZ vs MBP): 7.045 | Ratio TX1BP3 / MBP ([1]; bait TX1BP3 PDZ, fold change of prey): 132.089 | Difference log2 (HaCat cell extract preys; bait SCRIB_1 PDZ vs MBP, enrichment of prey): 5.7166 | Ratio SCRIB_1/MBP (HaCat cell extract preys; [8]): 52.5856

B3: UBA6 (protein, UniProt A0AVT1 1-1052, looked up)
Ubiquitin-like …: MEGSEPVAAHQGEEASCSSWGTGSTNKNLPIMSTASVEIDDALYSRQRYVLGDTAMQKMAKSHVFLSGMGGLGLEIAKNLVLAGIKAVTIHDTEKCQAWDLGTNFFLSEDDVVNKRNRAEAVLKHIAELNPYVHVTSSSVPFNETTDLSFLDKYQCVVLTEMKLPLQKKINDFCRSQCPPIKFISADVHGIWSRLFCDFGDEFEVLDTTGEEPKEIFISNITQANPGIVTCLENHPHKLETGQFLTFREINGMTGLNGSIQQITVISPFSFSIGDTTELEPYLHGGIAVQVKTPKTVFFESLERQLKHPKCLIVDFSNPEAPLEIHTAMLALDQFQEKYSRKPNVGCQQDSEELLKLATSISETLEEKPDVNADIVHWLSWTAQGFLSPLAAAVGGVASQEVLKAVTGKFSPLCQWLYLEAADIVESLGKPECEEFLPRGDRYDALRACIGDTLCQKLQNLNIFLVGCGAIGCEMLKNFALLGVGTSKEKGMITVTDPDLIEKSNLNRQFLFRPHHIQKPKSYTAADATLKINSQIKIDAHLNKVCPTTETIYNDEFYTKQDVIITALDNVEARRYVDSRCLANLRPLLDSGTMGTKGHTEVIVPHLTESYNSHRDPPEEEIPFCTLKSFPAAIEHTIQWARDKFESSFSHKPSLFNKFWQTYSSAEEVLQKIQSGHSLEGCFQVIKLLSRRPRNWSQCVELARLKFEKYFNHKALQLLHCFPLDIRLKDGSLFWQSPKRPPSPIKFDLNEPLHLSFLQNAAKLYATVYCIPFAEEDLSADALLNILSEVKIQEFKPSNKVVQTDETARKPDHVPISSEDERNAIFQLEKAILSNEATKSDLQMAVLSFEKDDDHNGHIDFITAASNLRAKMYSIEPADRFKTKRIAGKIIPAIATTTATVSGLVALEMIKVTGGYPFEAYKNCFLNLAIPIVVFTETTEVRKTKIRNGISFTIWDRWTVHGKEDFTLLDFINAVKEKYGIEPTMVVQGVKMLYVPVMPGHAKRLKLTMHKLVKPTTEKKYVDLTVSFAPDIDGDEDLPGPPVRYYFSHDTD
Difference log2 E6/Ctrl (HEK293T cells): -0.8956 | Ratio E6/Ctrl (HEK293T cells): 0.5375 | Difference log2 dPBM/E6 (HEK293T cells): 0.6111 | Ratio dPBM/E6 (HEK293T cells): 1.527 | Difference log2 dPBM/Ctrl (HEK293T cells): -0.2845 | Ratio dPBM/Ctrl (HEK293T cells): 0.821

B4: ZW10 (protein, UniProt O43264 2-779, looked up)
Centromere/kinetochore …: ASFVTEVLAHSGRLEKEDLGTRISRLTRRVEEIKGEVCNMISKKYSEFLPSMQSAQGLITQVDKLSEDIDLLKSRIESEVRRDLHVSTGEFTDLKQQLERDSVVLSLLKQLQEFSTAIEEYNCALTEKKYVTGAQRLEEAQKCLKLLKSRKCFDLKILKSLSMELTIQKQNILYHLGEEWQKLIVWKFPPSKDTSSLESYLQTELHLYTEQSHKEEKTPMPPISSVLLAFSVLGELHSKLKSFGQMLLKYILRPLASCPSLHAVIESQPNIVIIRFESIMTNLEYPSPSEVFTKIRLVLEVLQKQLLDLPLDTDLENEKTSTVPLAEMLGDMIWEDLSECLIKNCLVYSIPTNSSKLQQYEEIIQSTEEFENALKEMRFLKGDTTDLLKYARNINSHFANKKCQDVIVAARNLMTSEIHNTVKIIPDSKINVPELPTPDEDNKLEVQKVSNTQYHEVMNLEPENTLDQHSFSLPTCRISESVKKLMELAYQTLLEATTSSDQCAVQLFYSVRNIFHLFHDVVPTYHKENLQKLPQLAAIHHNNCMYIAHHLLTLGHQFRLRLAPILCDGTATFVDLVPGFRRLGTECFLAQMRAQKGELLERLSSARNFSNMDDEENYSAASKAVRQVLHQLKRLGIVWQDVLPVNIYCKAMGTLLNTAISEVIGKITALEDISTEDGDRLYSLCKTVMDEGPQVFAPLSEESKNKKYQEEVPVYVPKWMPFKELMMMLQASLQEIGDRWADGKGPLAAAFSSSEVKALIRALFQNTERRAAALAKIK
Difference log2 E6/Ctrl (HEK293T cells): 1.251 | Ratio E6/Ctrl (HEK293T cells): 2.38 | Difference log2 dPBM/E6 (HEK293T cells): -3.211 | Ratio dPBM/E6 (HEK293T cells): 0.108 | Difference log2 dPBM/Ctrl (HEK293T cells): -1.96 | Ratio dPBM/Ctrl (HEK293T cells): 0.2569

From paper PMC9482650, “Quantitative fragmentomics allow affinity mapping of interactomes” (Nature Communications, 2022)
